This passage reports ddG results from PMC7822942.

What all share (assay): thermodynamic integration MD simulation (TIMD; computed, not an experimental measurement)
The target of assay [1] is rat gephyrin E-domain (amino acids 318-736) D664N (other chain of the homodimer). Conditions: E-domain dimer; value per mutation point; read off a plot.
In assay [2] the target is rat gephyrin E-domain (amino acids 318-736) G375D (other chain of the homodimer). Conditions: E-domain dimer; value per mutation point; read off a plot.
In assay [3] the target is rat gephyrin E-domain (amino acids 318-736) G545A (other chain of the homodimer). Conditions: E-domain dimer; value per mutation point; read off a plot.
Assay [4] concerns the target rat gephyrin E-domain (amino acids 318-736) G545S (other chain of the homodimer). Conditions: E-domain dimer; value per mutation point; read off a plot.
Assay [5] has as its target rat gephyrin G-domain (amino acids 1-188) A91T (other chains of the homotrimer). Conditions: G-domain trimer; value per mutation point; read off a plot.
The target of assay [6] is rat gephyrin G-domain (amino acids 1-188) V43L (other chains of the homotrimer). The following applies: G-domain trimer; value per mutation point; read off a plot.

In the case of “rat gephyrin E-domain WT (amino acids 318-736) D664N”, the ddG in assay [1] is -0.7 kcal/mol.

In assay [2], “rat gephyrin E-domain WT (amino acids 318-736) G375D” yielded a ddG of 5.7 kcal/mol. For “rat gephyrin E-domain WT (amino acids 318-736) G545A”, the ddG in assay [3] was 0.3 kcal/mol. On to “rat gephyrin E-domain WT (amino acids 318-736) G545S”, for which, in assay [4], the ddG was 0.2 kcal/mol. On to “rat gephyrin G-domain WT (amino acids 1-188) A91T”, for which, in assay [5], the ddG is 1.7 kcal/mol. The substance “rat gephyrin G-domain WT (amino acids 1-188) V43L” yielded a ddG in assay [6] of -0.95 kcal/mol.
